Laboratory results as given in article doi:10.1101/654111 (bioRxiv, 2019).

Target: the molecule itself
Test: SEC-MALS

B1: Gemin5 TPR-like domain (residues 807-1097) (domain or fragment)
chain: TPVSSGFEKSKVTINNKVILLKKEPPKEKPETLIKKRKARSLLPLSTSLDHRSKEELHQDCLVLATAKHSRELNEDVSADVEERFHLGLFTDRATLYRMIDIEGKGHLENGHPELFHQLMLWKGDLKGVLQTAAERGELTDNLVAMAPAAGYHVWLWAVEAFAKQLCFQDQYVKAASHLLSIHKVYEAVELLKSNHFYREAIAIAKARLRPEDPVLKDLYLSWGTVLERDGHYAVAAKCYLGATCAYDAAKVLAKKGDAASLRTAAELAAIVGEDELSASLALRCAQELLL
B1 was tested, and the “stoichiometry N” value was 2.
